Source: paper PMC9482650, “Quantitative fragmentomics allow affinity mapping of interactomes” (Nature Communications, 2022)

What was measured:
Experiment in all cases: holdup assay
Parameters in all cases: key: below the threshold = too weak to quantify, mostly under pKd 3.1 to 4
PDZRN3_1, Q9UPQ7 = biological target: T1, PDZRN3_1, Q9UPQ7
T1 sequence (Q9UPQ7 244-349, limits assumed, looked up): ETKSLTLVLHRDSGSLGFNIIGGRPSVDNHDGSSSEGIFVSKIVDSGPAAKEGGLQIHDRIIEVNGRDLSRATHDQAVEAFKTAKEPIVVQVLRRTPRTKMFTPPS

MAGI2_3, Q86UL8 = biological target: MAGI2_3, Q86UL8
PARD3B_1, Q8TEW8 = biological target: T2, PARD3B_1, Q8TEW8
T2 sequence (Q8TEW8 196-299, limits assumed, looked up): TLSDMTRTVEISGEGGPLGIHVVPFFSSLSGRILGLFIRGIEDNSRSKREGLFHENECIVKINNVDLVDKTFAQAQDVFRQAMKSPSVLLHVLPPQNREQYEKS

GRIP1_5, Q9Y3R0 = biological target: T3, GRIP1_5, Q9Y3R0
T3 sequence (Q9Y3R0 568-668, limits assumed, looked up): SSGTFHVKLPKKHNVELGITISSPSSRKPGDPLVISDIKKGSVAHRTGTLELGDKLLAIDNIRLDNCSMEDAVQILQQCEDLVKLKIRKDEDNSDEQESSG

FRMPD4, Q14CM0 = biological target: FRMPD4, Q14CM0
LIN7A, O14910 = biological target: T4, LIN7A, O14910
T4 sequence (O14910 103-200, limits assumed, looked up): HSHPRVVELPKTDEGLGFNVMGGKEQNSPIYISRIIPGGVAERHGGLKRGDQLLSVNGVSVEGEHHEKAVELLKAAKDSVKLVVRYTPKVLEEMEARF

NHERF3_1, Q5T2W1 = biological target: T5, NHERF3_1, Q5T2W1
T5 sequence (Q5T2W1 4-100, limits assumed, looked up): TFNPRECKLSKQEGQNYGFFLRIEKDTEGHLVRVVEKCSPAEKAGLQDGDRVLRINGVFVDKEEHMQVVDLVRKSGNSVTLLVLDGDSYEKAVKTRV

PDLIM1, O00151 = biological target: PDLIM1, O00151
MAGI2_6, Q86UL8 = biological target: MAGI2_6, Q86UL8
NOS1, P29475 = biological target: NOS1, P29475
APBA2_1, Q99767 = biological target: T6, APBA2_1, Q99767
T6 sequence (Q99767 563-664, limits assumed, looked up): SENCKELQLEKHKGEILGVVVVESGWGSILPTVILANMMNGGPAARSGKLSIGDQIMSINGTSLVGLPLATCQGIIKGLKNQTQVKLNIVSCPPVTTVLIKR

DLG3_1, Q92796 = biological target: T7, DLG3_1, Q92796
T7 sequence (Q92796 125-227, limits assumed, looked up): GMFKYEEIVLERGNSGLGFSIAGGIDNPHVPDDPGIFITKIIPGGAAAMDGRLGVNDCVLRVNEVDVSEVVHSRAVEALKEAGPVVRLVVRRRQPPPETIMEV

FRMPD1, Q5SYB0 = biological target: T8, FRMPD1, Q5SYB0
T8 sequence (Q5SYB0 52-145, limits assumed, looked up): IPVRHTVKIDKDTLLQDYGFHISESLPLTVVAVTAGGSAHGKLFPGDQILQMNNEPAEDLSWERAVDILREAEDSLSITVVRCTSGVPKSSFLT

MPDZ_5, O75970 = biological target: T9, MPDZ_5, O75970
T9 sequence (O75970 695-796, limits assumed, looked up): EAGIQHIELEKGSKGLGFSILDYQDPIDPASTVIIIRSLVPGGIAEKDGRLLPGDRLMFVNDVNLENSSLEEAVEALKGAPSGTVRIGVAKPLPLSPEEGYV

PARD3_3, Q8TEW0 = biological target: PARD3_3, Q8TEW0
CARD11, Q9BXL7 = biological target: T10, CARD11, Q9BXL7
T10 sequence (Q9BXL7 662-765, limits assumed, looked up): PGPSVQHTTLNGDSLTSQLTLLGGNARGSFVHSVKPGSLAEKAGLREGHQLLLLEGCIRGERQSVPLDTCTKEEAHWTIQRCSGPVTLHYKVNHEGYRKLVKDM

MPDZ_12, O75970 = biological target: T11, MPDZ_12, O75970
T11 sequence (O75970 1857-1958, limits assumed, looked up): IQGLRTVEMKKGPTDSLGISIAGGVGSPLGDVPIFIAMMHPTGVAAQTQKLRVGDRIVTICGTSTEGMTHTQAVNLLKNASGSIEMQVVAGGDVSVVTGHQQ

DLG4_1, P78352 = biological target: DLG4_1, P78352
Inadl_3, Q8NI35 = biological target: Inadl_3, Q8NI35
LDB3, O75112 = biological target: LDB3, O75112
IL16_4, Q14005 = biological target: IL16_4, Q14005
GRID2IP_1, A4D2P6 = biological target: GRID2IP_1, A4D2P6
APBA3_1, O96018 = biological target: T12, APBA3_1, O96018
T12 sequence (O96018 389-490, limits assumed, looked up): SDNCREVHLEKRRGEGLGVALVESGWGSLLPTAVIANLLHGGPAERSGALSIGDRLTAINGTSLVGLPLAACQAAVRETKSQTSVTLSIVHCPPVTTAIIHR

GRIP1_7, Q9Y3R0 = biological target: T13, GRIP1_7, Q9Y3R0
T13 sequence (Q9Y3R0 999-1096, limits assumed, looked up): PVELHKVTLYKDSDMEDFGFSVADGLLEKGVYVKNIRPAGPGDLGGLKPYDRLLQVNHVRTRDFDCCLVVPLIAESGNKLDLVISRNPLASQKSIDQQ

[1] = plain residues with an end cap or a label only (N-terminal biotin on a linker: ahx)
[2] = plain residues with an end cap or a label only (N-terminal biotin on a linker: ttds)

Chain of PARD3_3, Q8TEW0 (Q8TEW0 582-685): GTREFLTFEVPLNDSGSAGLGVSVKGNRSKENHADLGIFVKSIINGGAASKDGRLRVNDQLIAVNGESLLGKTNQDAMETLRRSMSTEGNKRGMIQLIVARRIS
Chain of MAGI2_3, Q86UL8 (Q86UL8 600-682): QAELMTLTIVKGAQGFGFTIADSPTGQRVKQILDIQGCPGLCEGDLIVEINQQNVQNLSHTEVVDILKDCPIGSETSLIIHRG
Chain of LDB3, O75112 (O75112 1-94): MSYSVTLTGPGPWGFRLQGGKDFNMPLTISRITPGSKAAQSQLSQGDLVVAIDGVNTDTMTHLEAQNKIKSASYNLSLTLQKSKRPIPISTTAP
Chain of MAGI2_6, Q86UL8 (Q86UL8 1141-1229): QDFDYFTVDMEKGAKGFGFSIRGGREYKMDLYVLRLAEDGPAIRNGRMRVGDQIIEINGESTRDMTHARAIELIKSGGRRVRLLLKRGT
Chain of Inadl_3, Q8NI35 (Q8NI35 359-469): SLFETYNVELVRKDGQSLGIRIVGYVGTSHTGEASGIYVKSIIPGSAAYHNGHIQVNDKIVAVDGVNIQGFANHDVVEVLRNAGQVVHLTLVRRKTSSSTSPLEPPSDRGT
Chain of FRMPD4, Q14CM0 (Q14CM0 67-160): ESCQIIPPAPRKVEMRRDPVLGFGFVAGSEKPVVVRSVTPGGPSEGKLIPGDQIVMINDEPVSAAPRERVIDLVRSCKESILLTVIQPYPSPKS
Chain of GRID2IP_1, A4D2P6 (A4D2P6 1-87): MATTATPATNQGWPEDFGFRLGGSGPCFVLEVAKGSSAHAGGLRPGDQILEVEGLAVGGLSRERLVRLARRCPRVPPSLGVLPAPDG
Chain of IL16_4, Q14005 (Q14005 1229-1329): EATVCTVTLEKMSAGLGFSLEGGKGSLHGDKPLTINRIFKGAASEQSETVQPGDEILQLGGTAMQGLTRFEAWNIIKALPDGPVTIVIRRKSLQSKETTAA
Chain of DLG4_1, P78352 (P78352 62-152): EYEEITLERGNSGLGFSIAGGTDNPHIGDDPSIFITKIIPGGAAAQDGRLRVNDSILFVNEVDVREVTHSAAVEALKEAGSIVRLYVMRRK
Chain of NOS1, P29475 (P29475 9-101): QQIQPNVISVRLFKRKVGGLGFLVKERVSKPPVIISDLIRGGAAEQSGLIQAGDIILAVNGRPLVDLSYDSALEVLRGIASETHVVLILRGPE
Chain of PDLIM1, O00151 (O00151 1-87): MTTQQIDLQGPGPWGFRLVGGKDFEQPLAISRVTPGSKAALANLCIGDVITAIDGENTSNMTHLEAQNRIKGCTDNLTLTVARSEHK

B1: RGS12, O14924 (peptide)
chain: KTSAHHATFV
pKd (PDZRN3_1, Q9UPQ7; [1]): below the threshold
pKd (MAGI2_3, Q86UL8; [1]): below the threshold
pKd (PARD3B_1, Q8TEW8; [1]): below the threshold
pKd (GRIP1_5, Q9Y3R0; [1]): below the threshold
pKd (FRMPD4, Q14CM0; [1]): below the threshold
pKd (LIN7A, O14910; [1]): below the threshold
pKd (NHERF3_1, Q5T2W1; [1]): 4.41
pKd (PDLIM1, O00151; [1]): below the threshold
pKd (MAGI2_6, Q86UL8; [1]): 4.02
pKd (NOS1, P29475; [1]): 3.66
pKd (APBA2_1, Q99767; [1]): below the threshold
pKd (DLG3_1, Q92796; [1]): below the threshold
pKd (FRMPD1, Q5SYB0; [1]): below the threshold
pKd (MPDZ_5, O75970; [1]): 3.58
pKd (PARD3_3, Q8TEW0; [1]): below the threshold
pKd (CARD11, Q9BXL7; [1]): below the threshold
pKd (MPDZ_12, O75970; [1]): 3.78
pKd (DLG4_1, P78352; [1]): 4.22
pKd (Inadl_3, Q8NI35; [1]): below the threshold
pKd (LDB3, O75112; [1]): below the threshold
pKd (IL16_4, Q14005; [1]): below the threshold
pKd (GRID2IP_1, A4D2P6; [1]): below the threshold
pKd (APBA3_1, O96018; [1]): below the threshold
pKd (GRIP1_7, Q9Y3R0; [1]): below the threshold

B2: ATP2B1, P20020 (peptide)
chain: SPLHSLETSL
pKd (PDZRN3_1, Q9UPQ7; [2]): 5.09
pKd (MAGI2_3, Q86UL8; [2]): 3.5
pKd (PARD3B_1, Q8TEW8; [2]): 4.02
pKd (GRIP1_5, Q9Y3R0; [2]): below the threshold
pKd (FRMPD4, Q14CM0; [2]): 4.45
pKd (LIN7A, O14910; [2]): below the threshold
pKd (NHERF3_1, Q5T2W1; [2]): 5.24
pKd (PDLIM1, O00151; [2]): 3.71
pKd (MAGI2_6, Q86UL8; [2]): 4.24
pKd (NOS1, P29475; [2]): 3.77
pKd (APBA2_1, Q99767; [2]): below the threshold
pKd (DLG3_1, Q92796; [2]): 3.62
pKd (FRMPD1, Q5SYB0; [2]): below the threshold
pKd (MPDZ_5, O75970; [2]): below the threshold
pKd (PARD3_3, Q8TEW0; [2]): 3.82
pKd (CARD11, Q9BXL7; [2]): below the threshold
pKd (MPDZ_12, O75970; [2]): below the threshold
pKd (DLG4_1, P78352; [2]): 4.06
pKd (Inadl_3, Q8NI35; [2]): 3.51
pKd (LDB3, O75112; [2]): below the threshold
pKd (IL16_4, Q14005; [2]): below the threshold
pKd (GRID2IP_1, A4D2P6; [2]): below the threshold
pKd (APBA3_1, O96018; [2]): 3.47
pKd (GRIP1_7, Q9Y3R0; [2]): 3.58

B3: NHERF3, Q5T2W1 (peptide)
chain: SSSNSEDTEM
pKd (PDZRN3_1, Q9UPQ7; [1]): below the threshold
pKd (MAGI2_3, Q86UL8; [1]): below the threshold
pKd (PARD3B_1, Q8TEW8; [1]): below the threshold
pKd (GRIP1_5, Q9Y3R0; [1]): below the threshold
pKd (FRMPD4, Q14CM0; [1]): below the threshold
pKd (LIN7A, O14910; [1]): below the threshold
pKd (NHERF3_1, Q5T2W1; [1]): below the threshold
pKd (PDLIM1, O00151; [1]): below the threshold
pKd (MAGI2_6, Q86UL8; [1]): below the threshold
pKd (NOS1, P29475; [1]): below the threshold
pKd (APBA2_1, Q99767; [1]): below the threshold
pKd (DLG3_1, Q92796; [1]): below the threshold
pKd (FRMPD1, Q5SYB0; [1]): below the threshold
pKd (MPDZ_5, O75970; [1]): below the threshold
pKd (PARD3_3, Q8TEW0; [1]): below the threshold
pKd (CARD11, Q9BXL7; [1]): below the threshold
pKd (MPDZ_12, O75970; [1]): below the threshold
pKd (DLG4_1, P78352; [1]): below the threshold
pKd (Inadl_3, Q8NI35; [1]): below the threshold
pKd (LDB3, O75112; [1]): below the threshold
pKd (IL16_4, Q14005; [1]): below the threshold
pKd (GRID2IP_1, A4D2P6; [1]): below the threshold
pKd (APBA3_1, O96018; [1]): below the threshold
pKd (GRIP1_7, Q9Y3R0; [1]): below the threshold
